Earlier results in patent US20200031943A1 (priority 2017, published 2020).
Where two headings read alike, the source gives them in different places.

Details: for percentage of patients reported as developing influenza / upper respiratory infections (percentage of patients): SLE patients; for percentage of patients reported as developing influenza: placebo 2.0%; for upper respiratory infections (percentage of patients): placebo 28.7%
[1] = 300 mg intravenous every 4 weeks for 48 weeks
[2] = 1,000 mg intravenous every 4 weeks for 48 weeks

anifrolumab
percentage of patients reported as developing influenza [1]: 6.1%
upper respiratory infections (percentage of patients) [1]: 36.4%
incidence of serious adverse events (300 mg or 1,000 mg intravenous every 4 weeks for 48 weeks vs placebo): did not increase the incidence of serious adverse events
percentage of patients reported as developing influenza [2]: 7.6%
upper respiratory infections (percentage of patients) [2]: 41.9%
frequency of herpes zoster and influenza infections (anifrolumab-treatment group vs placebo): slightly more frequent
